B1: CXCL9 (natural protein, human, UniProt Q07325 23-125, looked up)
chain: TPVVRKGRCSCISTNQGTIHLQSLKDLKQFAPSPSCEKIEIIATLKNGVQTCLNPDSADVKELIKKWEKQVSQKKKQKNGKKHQKKKVLKVRKSQRSRQKKTT
notes: human chemokine CXCL9, untagged recombinant protein; source: bought: Peprotech, recombinant, produced in Escherichia coli
B2: CXCL11 (natural protein, human, UniProt O14625 22-94, looked up)
chain: FPMFKRGRCLCIGPGVKAVKVADIEKASIMYPSNNCDKIEVIITLKENKGQRCLNPKSKQARLIIKKVERKNF
notes: human chemokine CXCL11, untagged recombinant protein; source: bought: Peprotech, recombinant, produced in Escherichia coli

Biological target: the molecule itself
Assay: cross-linking; 50 ng chemokine in 20 mM HEPES, 30 min at room temperature without or with phospholipid (brain PE, PC, PS or heart CL; 1:8 chemokine:total lipid molar ratio), then 0.25 mM BS3 for 30 min; SDS-PAGE and immunoblot with anti-chemokine antibodies

Protein | binding result
B1 | binds
B2 | binds

Reference: publication PMC8213124, “Chemokines act as phosphatidylserine-bound “find-me” signals in apoptotic cell clearance” (PLoS Biology, 2021)
